For series [1], the system named is CC(C)=CCC/C(C)=C/CC/C(C)=C/CO[P@@](=O)(O)OP(=O)(O)O. Put plainly: cells, lysate or membranes named. As to conditions: other: purified enzyme, steady-state; 20.0 °C.
For series [2] the test system is unchanged. Put plainly: Steady-state kinetics of purified farnesene synthase variant FS_B_5.3. Format: biochemical, Artemisia annua. As to conditions: other: purified enzyme, 20.0 °C.

These results are taken from patent publication US8236512B1, “Methods of developing terpene synthase variants” (Amyris, Inc., priority 2011, dated 2012).

Chain of Artemisia annua β-farnesene synthase, wild type, SEQ ID NO: 111 (FS_Aa_Ec coding sequence, SEQ ID NO: 62) (Artemisia annua) (chain, as listed by the source): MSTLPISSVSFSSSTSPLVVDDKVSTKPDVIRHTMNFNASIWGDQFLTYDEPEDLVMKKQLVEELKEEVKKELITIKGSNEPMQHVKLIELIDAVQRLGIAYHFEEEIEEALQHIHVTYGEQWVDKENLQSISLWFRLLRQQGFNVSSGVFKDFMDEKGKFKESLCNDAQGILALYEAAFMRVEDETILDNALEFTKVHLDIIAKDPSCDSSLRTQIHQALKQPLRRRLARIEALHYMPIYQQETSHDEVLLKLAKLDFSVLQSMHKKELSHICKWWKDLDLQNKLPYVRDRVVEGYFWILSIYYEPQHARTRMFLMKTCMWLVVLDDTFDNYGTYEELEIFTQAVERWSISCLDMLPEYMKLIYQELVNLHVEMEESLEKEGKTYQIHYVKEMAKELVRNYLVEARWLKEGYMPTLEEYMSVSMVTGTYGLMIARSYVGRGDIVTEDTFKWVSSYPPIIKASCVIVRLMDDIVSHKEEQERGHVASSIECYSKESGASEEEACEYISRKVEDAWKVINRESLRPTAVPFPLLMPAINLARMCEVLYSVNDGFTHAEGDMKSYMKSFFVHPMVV

For orientation: Km means the concentration of substrate that gives half-maximal velocity. For orientation: kcat means the maximal rate divided by the concentration of active sites. Regarding “Artemisia annua β-farnesene synthase, wild type, SEQ ID NO: 111 (FS_Aa_Ec coding sequence, SEQ ID NO: 62) (Artemisia annua)”, in series [1], the Km was 0.58 ± 0.19 µM and the kcat was 0.071 s⁻¹.

Take “Artemisia annua β-farnesene synthase (SEQ ID NO: 111) variant FS_B_5.3 F11S/V24D/M35T/T196S/Y288F/T319S/I434T/T446N/I460V/V467I (FS_B_5.3_Ec; parent coding sequence FS_B, SEQ ID NO: 119) (Artemisia annua; F11S/I437T/I463V/M35T/T196S/T319S/T449N/V24D/V470I/Y288F)”: in series [2], the Km turned out to be 1.18 ± 0.44 µM and the kcat was 0.093 ± 0.009 s⁻¹.
